To fix the notation:
B1: truncated Myc-tagged DIX domain of DVL2 [human] / Dishevelled-2 (DVL2), full-length, Flag-tagged [human] (parent)
chain 1: VGETKVIYHLDEEETPYLVKIPVPAERITLGDFKSVLQRPAGAKYFFKSMDQDFGVVKEEISDDNARLPCFNGRVVSWLVSSD
chain 2: MAGSSTGGGGVGETKVIYHLDEEETPYLVKIPVPAERITLGDFKSVLQRPAGAKYFFKSMDQDFGVVKEEISDDNARLPCFNGRVVSWLVSSDNPQPEMAPPVHEPRAELAPPAPPLPPLPPERTSGIGDSRPPSFHPNVSSSHENLEPETETESVVSLRRERPRRRDSSEHGAGGHRTGGPSRLERHLAGYESSSTLMTSELESTSLGDSDEEDTMSRFSSSTEQSSASRLLKRHRRRRKQRPPRLERTSSFSSVTDSTMSLNIITVTLNMEKYNFLGISIVGQSNERGDGGIYIGSIMKGGAVAADGRIEPGDMLLQVNDMNFENMSNDDAVRVLRDIVHKPGPIVLTVAKCWDPSPQAYFTLPRNEPIQPIDPAAWVSHSAALTGTFPAYPGSSSMSTITSGSSLPDGCEGRGLSVHTDMASVTKAMAAPESGLEVRDRMWLKITIPNAFLGSDVVDWLYHHVEGFPERREARKYASGLLKAGLIRHTVNKITFSEQCYYVFGDLSGGCESYLVNLSLNDNDGSSGASDQDTLAPLPGATPWPLLPTFSYQYPAPHPYSPQPPPYHELSSYTYGGGSASSQHSEGSRSSGSTRSDGGAGRTGRPEERAPESKSGSGSESEPSSRGGSLRRGGEASGTSDGGPPPSRGSTGGAPNLRAHPGLHPYGPPPGMALPYNPMMVVMMPPPPPPVPPAVQPPGAPPVRDLGSVPPELTASRQSFHMAMGNPSEFFVDVM

The variants in the assay derive from B1. The assay can be described thus: Co-IP (IP: Flag, immunoblot for Myc-DIX) with densitometry. To be noted: with Dishevelled-2 (DVL2), HEK293T cells, co-immunoprecipitated DIX levels normalized to immunoprecipitated DVL2 levels, three independent experiments, parent: 4.7, read off a plot.
In the case of chain 1 VGETKVIYHLDEEETPYLVKIPVPAERITLGDFKSVLQRPAGAKYFFKSMDQDFGVVREEISDDNARLPCFNGRVVSWLVSSD [chain 1 K58R], the response came to 1.1.

These data come from PMC7338394.
